Laboratory results taken from patent publication US9890409B2, “Composition for astringin product” (INDUSTRY FOUNDATION OF CHONNAM NATIONAL UNIVERSITY, priority 2015, dated 2018).

Assay: Oxidation of polydatin to astringin (3′-hydroxylation), steady-state kinetics by HPLC
Assay type: biochemical
Settings: polydatin as substrate, NADPH-generating system, 37° C., 30 minutes, 100 mM potassium phosphate buffer pH 7.4
Protocol: P450 BM3 50 pmol and […] of polydatin as a substrate were added to 0.25 ml of 100 mM potassium phosphate buffer (pH 7.4) to perform a typical steady-state reaction. In order to start the reaction, the NADPH-generating system (10 mM glucose 6-phosphate, 0.5 mM NADP^+ and 1 IU yeast glucose 6-phosphate-dihydrogenase per 1 ml of final concentration) was added. 20 mM polydatin solution was prepared with DMSO, and diluted with an enzyme reaction solution, thereby preparing a reaction mixture so that the final organic solvent has a concentration of 1%/(v/v) or less. The solution was reacted at 37° C. for 30 minutes, and the reaction was terminated with ethyl-acetate which is cooled by using ice with twice amount.
The reaction mixture was centrifuged, the supernatant was […]. Then, the solvent was evaporated under a nitrogen gas, and analyzed by HPLC. A sample (30 μl) was injected into Gemini C18 column (4.6 mm×150 mm, 5 μm, Phenomenex, Torrance, Calif.). […] The mobile phase flowed at a rate of 1 ml/minute and an eluent was measured by 320 nm of UV.
In order to examine whether polydatin is oxidized by CYP102A1(P450 BM3), oxidativity of polydatin was measured at a substrate concentration fixed to be 1000 μM in the P450 wild-type CYP102A1, the CYP102A1 mutant, the CYP102A1 chimera, and the mutant of CYP102A1 chimera. […]

B1: M16V3: chimera protein: heme domain of CYP102A1 Mutant#16 (R47L/F81I/F87V/E143G/L188Q/E267V) fused with reductase domain of natural variant CYP102A1.3 (protein)
chain: TIKEMPQPKTFGELKNLPLLNTDKPVQALMKIADELGEIFKFEAPGLVTRYLSSQRLIKEACDESRFDKNLSQALKFVRDFAGDGIVTSWTHEKNWKKAHNILLPSFSQQAMKGYHAMMVDIAVQLVQKWERLNADEHIEVPGDMTRLTLDTIGLCGFNYRFNSFYRDQPHPFITSMVRALDEAMNKQQRANPDDPAYDENKRQFQEDIKVMNDLVDKIIADRKASGEQSDDLLTHMLNGKDPETGEPLDDENIRYQIITFLIAGHVTTSGLLSFALYFLVKNPHVLQKAAEEAARVLVDPVPSYKQVKQLKYVGMVLNEALRLWPTAPAFSLYAKEDTVLGGEYPLEKGDELMVLIPQLHRDKTIWGDDVEEFRPERFENPSAIPQHAFKPFGNGQRACIGQQFALHEATLVLGMMLKHFDFEDHTNYELDIKETLTLKPEGFVVKAKSKKIPLGGIPSPSTEQSAKKVRKKVENAHNTPLLVLYGSNMGTAEGTARDLADIAMSKGFAPQVATLDSHAGNLPREGAVLIVTASYNGHPPDNAKQFVDWLDQASADDVKGVRYSVFGCGDKNWATTYQKVPAFIDETLAAKGAENIADRGEADASDDFEGTYEEWREHMWSDVAAYFNLDIENSEDNKSTLSLQFVDSAADMPLAKMHGAFSANVVASKELQQLGSERSTRHLEIALPKEASYQEGDHLGVIPRNYEGIVNRVTARFGLDASQQIRLEAEEEKLAHLPLGKTVSVEELLQYVELQDPVTRTQLRAMAAKTVCPPHKVELEALLEKQAYKEQVLAKRLTMLELLEKYPACEMEFSEFIALLPSISPRYYSISSSPHVDEKQASITVSVVSGEAWSGYGEYKGIASNYLANLQEGDTITCFVSTPQSGFTLPKDSETPLIMVGPGTGVAPFRGFVQARKQLKEQGQSLGEAHLYFGCRSPHEDYLYQEELENAQNEGIITLHTAFSRVPNQPKTYVQHVMERDGKKLIELLDQGAHFYICGDGSQMAPDVEATLMKSYADVYEVSEADARLWLQQLEEKGRYAKDVWAG
modifications: CYP102A1 chimeric protein M16V3 aa seq
- kcat, astringin formation: 0.00417 ± 0.0005 s⁻¹
- Km (read-out: Km, astringin formation): 390 ± 111 µM
